The experiment concerns the target T1, phosphorylated ubiquitin (UniProt P0CG47 1-76, phosphorylated (site not given)).
T1 construct: ubiquitin, the mature cut product of its precursor; also called pUb; source: prepared as described [16]
The experiment in a line: HDX-MS; native-state hydrogen exchange with pepsin fragmentation MS; 20 mM HEPES, 150 mM NaCl, 10 uM ZnCl2, 1 mM TCEP, 2.5% glycerol, pH 7.0, 20 °C, urea up to 4 M; ~7 uM Parkin(∆Ubl), ~12 uM pUb. Conditions: both partners purified.

B1: Parkin(∆Ubl) (domain or fragment, human)
chain: SSGSPAGRSIYNSFYVYCKGPCQRVQPGKLRVQCSTCRQATLTLTQGPSCWDDVLIPNRMSGECQSPHCPGTSAEFFFKCGAHPTSDKETSVALHLIATNSRNITCITCTDVRSPVLVFQCNSRHVICLDCFHLYCVTRLNDRQFVHDPQLGYSLPCVAGCPNSLIKELHHFRILGEEQYNRYQQYGAEECVLQMGGVLCPRPGCGAGLLPEPDQRKVTCEGGNGLGCGFAFCRECKEAYHEGECSAVFEASGTTTQAYRVDERAAEQARWEAASKETIKKTTKPCPRCHVPVEKNGGCMHMKCPQPQCRLEWCWNCGCEWNRVCMGDHWFDV
notes: two extra serines that precede the Parkin residues in the construct; E3 ubiquitin ligase Parkin, human, canonical isoform (Swiss-Prot O60260-1), residues 135 through 465; RING0, RING1, IBR, REP and RING2 domains, without the Ubl domain and linker; The introduction defines the core as residues 137-461; the methods give the construct as (SS) plus 135-465; The His-SUMO fusion was cut with TEV …
In the case of B1, the binding result was “binds”.

The record behind these values is PMC11506642, “Cooperative Substructure and Energetics of Allosteric Regulation of the Catalytic Core of the E3 Ubiquitin Ligase Parkin by Phosphorylated Ubiquitin” (Biomolecules, 2024).
